What was measured:
[1] = target: GST-ErpQ (Borrelia burgdorferi strain B31); test: SPR
[2] = target: GST-ErpB (Borrelia burgdorferi strain B31); test: SPR
[3] = target: human C1 complex (C1qC1r2C1s2) (human) (UniProt P02745); test: ELISA
[4] = target: C1s enzyme (activated form of human C1s) (human) (UniProt P09871); test: ELISA
[5] = target: C1r enzyme (activated form of human C1r) (human) (UniProt P00736); test: ELISA
Chain of C1r enzyme (activated form of human C1r) (human) (P00736 18-463, chain 1 of 2): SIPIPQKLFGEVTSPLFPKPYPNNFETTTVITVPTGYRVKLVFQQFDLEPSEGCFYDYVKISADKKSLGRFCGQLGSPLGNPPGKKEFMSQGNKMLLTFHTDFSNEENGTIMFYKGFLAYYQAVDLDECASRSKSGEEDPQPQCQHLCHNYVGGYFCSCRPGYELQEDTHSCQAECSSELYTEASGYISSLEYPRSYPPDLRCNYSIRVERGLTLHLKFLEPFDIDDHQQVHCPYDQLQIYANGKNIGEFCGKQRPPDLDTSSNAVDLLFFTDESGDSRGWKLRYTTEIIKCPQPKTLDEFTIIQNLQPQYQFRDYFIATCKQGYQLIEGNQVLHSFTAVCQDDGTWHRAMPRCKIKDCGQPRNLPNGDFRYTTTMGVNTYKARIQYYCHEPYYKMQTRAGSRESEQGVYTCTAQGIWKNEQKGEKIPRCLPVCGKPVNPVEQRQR
Chain of C1r enzyme (activated form of human C1r) (human) (P00736 464-705, chain 2 of 2): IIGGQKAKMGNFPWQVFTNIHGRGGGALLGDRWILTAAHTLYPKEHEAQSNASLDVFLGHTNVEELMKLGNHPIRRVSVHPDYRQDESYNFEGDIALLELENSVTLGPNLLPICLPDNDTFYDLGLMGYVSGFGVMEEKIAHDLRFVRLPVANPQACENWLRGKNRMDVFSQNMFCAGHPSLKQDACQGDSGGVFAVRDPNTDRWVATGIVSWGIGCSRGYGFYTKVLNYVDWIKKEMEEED

Chain of C1s enzyme (activated form of human C1s) (human) (P09871 16-437, chain 1 of 2): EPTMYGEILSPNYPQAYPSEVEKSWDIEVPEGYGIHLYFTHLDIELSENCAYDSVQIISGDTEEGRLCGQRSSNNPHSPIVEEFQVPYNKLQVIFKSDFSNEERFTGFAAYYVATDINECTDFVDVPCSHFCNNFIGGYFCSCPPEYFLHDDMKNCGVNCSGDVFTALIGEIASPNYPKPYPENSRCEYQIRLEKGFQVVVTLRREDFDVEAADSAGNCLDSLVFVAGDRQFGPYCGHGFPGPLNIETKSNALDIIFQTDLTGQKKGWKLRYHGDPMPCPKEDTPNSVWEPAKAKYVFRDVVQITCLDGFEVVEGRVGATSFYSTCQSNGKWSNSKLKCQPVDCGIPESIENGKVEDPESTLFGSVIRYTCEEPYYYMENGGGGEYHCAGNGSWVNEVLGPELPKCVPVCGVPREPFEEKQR
Chain of C1s enzyme (activated form of human C1s) (human) (P09871 438-688, chain 2 of 2): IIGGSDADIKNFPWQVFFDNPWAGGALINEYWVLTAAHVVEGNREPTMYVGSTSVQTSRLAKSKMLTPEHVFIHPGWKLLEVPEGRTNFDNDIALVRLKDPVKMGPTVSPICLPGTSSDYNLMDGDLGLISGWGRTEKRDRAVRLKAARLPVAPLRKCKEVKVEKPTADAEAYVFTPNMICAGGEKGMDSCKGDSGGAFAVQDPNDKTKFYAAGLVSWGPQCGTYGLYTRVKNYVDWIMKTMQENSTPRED
Chain of human C1 complex (C1qC1r2C1s2) (human) (P02745 whole entry, looked up, one chain of several): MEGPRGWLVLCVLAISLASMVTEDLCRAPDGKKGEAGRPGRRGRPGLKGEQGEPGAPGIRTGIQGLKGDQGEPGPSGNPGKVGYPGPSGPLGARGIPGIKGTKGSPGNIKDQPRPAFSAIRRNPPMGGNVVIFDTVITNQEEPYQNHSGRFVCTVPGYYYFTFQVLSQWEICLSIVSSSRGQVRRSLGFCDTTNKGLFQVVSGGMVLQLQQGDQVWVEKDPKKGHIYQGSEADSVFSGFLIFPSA
Chain of human C1 complex (C1qC1r2C1s2) (P02746 whole entry, looked up): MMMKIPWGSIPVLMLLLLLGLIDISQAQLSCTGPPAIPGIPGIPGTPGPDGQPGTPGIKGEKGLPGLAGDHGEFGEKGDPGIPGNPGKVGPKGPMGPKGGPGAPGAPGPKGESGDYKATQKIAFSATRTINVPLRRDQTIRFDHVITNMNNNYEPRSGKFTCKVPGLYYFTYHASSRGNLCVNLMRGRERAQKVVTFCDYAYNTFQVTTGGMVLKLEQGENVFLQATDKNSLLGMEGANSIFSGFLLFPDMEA
Chain of human C1 complex (C1qC1r2C1s2) (P02747 whole entry, looked up): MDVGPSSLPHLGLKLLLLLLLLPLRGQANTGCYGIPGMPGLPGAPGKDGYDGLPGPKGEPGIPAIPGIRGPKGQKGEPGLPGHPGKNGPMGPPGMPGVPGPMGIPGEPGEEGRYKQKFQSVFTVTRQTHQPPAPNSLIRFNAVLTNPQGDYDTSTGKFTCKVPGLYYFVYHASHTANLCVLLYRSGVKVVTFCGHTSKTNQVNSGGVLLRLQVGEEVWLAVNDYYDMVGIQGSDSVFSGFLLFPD
Chain of human C1 complex (C1qC1r2C1s2) (P02745 whole entry, looked up): as the sequence (P02745 whole entry, looked up, one chain of several) above

Q: How did the Kd [1] turn out when C1s proenzyme (human) was run?
A: 170 nM

Q: And the Kd [2]?
A: 270 nM

Q: Which Kd [3] does the source give for GST-ErpB (natural protein) here?
A: 3.4 nM

Q: And the Kd [4]?
A: 6.7 nM

Q: What about the Kd [5] of the same substance?
A: 41 nM

Q: How did the Kd [3] turn out when GST-ErpQ (natural protein) was run?
A: 3.8 nM

Q: And the Kd [4]?
A: 4.7 nM

Q: And the Kd [5]?
A: 11 nM

Q: How did the Kd [2] turn out when “human C1 complex (C1qC1r2C1s2) (from UniProt P02745 23-245; P02746 28-253; P02747 29-245)” was run?
A: 5.6 nM

— paper doi:10.1101/2021.09.23.461563
